Results as given in patent publication US20210388103A1 (Takeda / Millennium, published 2021).

Key:
cynomolgus CD38 [1] = target: T1, cynomolgus CD38 (cynomolgus monkey, UniProt Q5VAN0 1-301); assay: cell-based or functional assay
human CD38 = target: T2, human CD38 (human, UniProt P28907 1-300); assay: binding to CHO cells expressing human CD38; CHO cells expressing human CD38
T2 construct: In the assays: on CHO-K1 cells transfected with full-length human CD38 cDNA, on human blood lymphocytes, RBCs, cell lines and tissue sections; also called human CD38 antigen

cynomolgus CD38 [2] = target: T1, cynomolgus CD38; assay: binding to monkey lymphocytes; method not described; monkey lymphocytes, not CHO cells
cynomolgus CD38 [3] = target: T1, cynomolgus CD38; assay: flow cytometry on CHO cells expressing cynomolgus monkey CD38; CHO cells expressing monkey CD38

T1 sequence (Q5VAN0 whole entry): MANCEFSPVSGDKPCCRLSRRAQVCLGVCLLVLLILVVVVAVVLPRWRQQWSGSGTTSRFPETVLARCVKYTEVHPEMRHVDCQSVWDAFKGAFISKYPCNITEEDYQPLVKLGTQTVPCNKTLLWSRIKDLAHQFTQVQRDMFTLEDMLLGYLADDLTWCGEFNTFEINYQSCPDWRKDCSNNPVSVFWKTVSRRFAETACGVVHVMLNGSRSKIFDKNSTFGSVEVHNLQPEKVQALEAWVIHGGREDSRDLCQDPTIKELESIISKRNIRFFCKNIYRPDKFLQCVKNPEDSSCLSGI

B1: AB79 (antibody, human IgG1, lambda, V domains shown)
VH: EVQLLESGGGLVQPGGSLRLSCAASGFTFDDYGMSWVRQAPGKGLEWVSDISWNGGKTHYVDSVKGQFTISRDNSKNTLYLQMNSLRAEDTAVYYCARGSLFHDSSGFYFGHWGQGTLVTVSS
VL: QSVLTQPPSASGTPGQRVTISCSGSSSNIGDNYVSWYQQLPGTAPKLLIYRDSQRPSGVPDRFSGSKSGTSASLAISGLRSEDEADYYCQSYDSSLSGSVFGGGTKLTVLG
notes: Fully human IgG1 monoclonal antibody; Used unlabelled, Alexa Fluor conjugated or biotinylated, depending on the assay; also called TAK 079
- cytolysis of NK cells in monkey whole blood in vitro, mean EC50 (cynomolgus CD38 [1]): 29.6 nM
- Kd (human CD38): 0.7 nM
- Kd (cynomolgus CD38 [2]): 4 nM
- EC50 (cynomolgus CD38 [3]): 4.5 nM
